Biological target: Caspase-8 (endogenous, in melanocytes and melanoma cells) (human) (UniProt Q14790)
Test: cell-based or functional assay

Caspase-8 (endogenous, in melanocytes and melanoma cells) (human), sequence (Q14790 whole entry): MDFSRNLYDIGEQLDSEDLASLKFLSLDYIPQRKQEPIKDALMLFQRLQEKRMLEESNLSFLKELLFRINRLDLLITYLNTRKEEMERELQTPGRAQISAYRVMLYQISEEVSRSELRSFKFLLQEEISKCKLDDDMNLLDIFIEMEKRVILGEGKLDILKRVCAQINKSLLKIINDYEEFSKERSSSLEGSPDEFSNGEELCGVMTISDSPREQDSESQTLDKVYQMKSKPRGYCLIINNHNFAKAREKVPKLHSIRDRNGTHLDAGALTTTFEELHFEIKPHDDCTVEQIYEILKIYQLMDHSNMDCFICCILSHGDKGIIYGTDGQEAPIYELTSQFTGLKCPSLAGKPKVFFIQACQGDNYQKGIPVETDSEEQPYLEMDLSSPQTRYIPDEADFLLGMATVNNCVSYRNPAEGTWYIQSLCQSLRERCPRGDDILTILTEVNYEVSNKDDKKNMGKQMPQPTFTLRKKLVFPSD

Concentration needed to block ET-1 induced E-cadherin down-regulation, relative to the 'IETD' inhibitor: 10 fold
Substance: Cell permeable caspase inhibitor containing the sequence DEVD (from UniProt P08620 7-22) (peptide)

— patent US8597645
